Here are results for 1 molecule from paper PMC5737849, “Structural study of the Fox-1 RRM protein hydration reveals a role for key water molecules in RRM-RNA recognition”.

Numbering of substitutions follows the chain as printed.

In one series the target is T1, Fox-1 RRM S155A (UniProt Q9NWB1 109-208, S155A).
T1 sequence: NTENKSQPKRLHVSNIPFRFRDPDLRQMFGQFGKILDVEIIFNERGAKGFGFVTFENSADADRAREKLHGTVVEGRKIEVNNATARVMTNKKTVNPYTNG
Description: NMR (1H-1H TOCSY); 1:1 ratio, 20 mM NaCl, pH 6.5, 40 C; switchSENSE: 10 mM Tris-HCl pH 7.4, 140 mM NaCl, 0.05% Tween20, 25 C; NMR: 10 mM phosphate pH 6.5, 20 mM NaCl, 40 C. Particulars: protein: recombinant; tags: N-terminal 6xHis (pET28a); single strand.

The target of the next series is T2, Fox-1 RRM WT (UniProt Q9NWB1 109-208).
T2 sequence: T1 sequence with A47S
Described as above. Particulars: protein: recombinant; tags: N-terminal 6xHis (pET28a); single strand.

On to UGCAUGU (ssRNA) [5'-UGCAUGU-3' RNA oligonucleotide (NMR)], for which the binding result in the series with Fox-1 RRM S155A and in the series with Fox-1 RRM WT was “binds” throughout.
